The source of these data is the nanobody polyreactivity screen of Harvey et al. (2022).

This series is described as follows: yeast display, Sf9 membrane polyspecificity reagent, FACS + sequencing; frameworks hold sequencing errors. The method, boiled down:
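Galactose-induced (36–48 hours) yeast carrying a synthetic nanobody display library were exposed to 10% biotinylated, detergent-solubilized Sf9 membrane reagent at 4 °C for 1 hour. FACS followed streptavidin microbead enrichment, using low and high (top ~1%) gates for expression (anti-HA) and reagent binding (streptavidin). Colony PCR, MiSeq 2 × 250 sequencing and CDR-length filtering followed. Labels for polyreactivity reflect the gate of origin.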
Take “QVQLVESGGGLVQAGGSLRLSCAASGRIFGPYTMGWYRQAPGKERELVAGITKSGSSTYYADSVKGRFTISRDNAKNTVYLQMNSLKPEDTAVYYCAADVYQVRGYYWGQGTQVTLSS”: the “polyreactivity (PSR sort gate)” value is listed as “high polyreactivity”.

With “QVQLVESGGGLVQAGGSLRLSCAASGRIFGPYVMGWYRQAPGKERELVAAINRRGGSTYYADSVKGRFTISRDNAKNTVYLQMNSLKPEDTAVYYCAAKKATVVYRMEYWGQGTQVTVSS”, the “polyreactivity (PSR sort gate)” value is “high polyreactivity”.

With “QVQLVESGGGLVQAGGSLRLSCAASGRIFGQNAMGWYRQAPGKERELVADITGSGGRTYYADSVKGRFTISRDNAKNTVYFQMNSLKPEDTAVYYCAVRVTSYYRTMVYWGQVTQVTVSS”, the “polyreactivity (PSR sort gate)” value was “low polyreactivity”.

Take “QVQLVESGGGLVQAGGSLRLSCAASGRIFGQYAMGWYRQAPGKDRELVAAISWRGGTTYYADSVKGRFTISRDNAKNTVYLQMNSLKPEDTAVYYCNADVWVYPYDYWGQGTQVTVSS”: the “polyreactivity (PSR sort gate)” value was “low polyreactivity”.

Take “QVQLVESGGGLVQAGGSLRLSCAASGRIFGQYAMGWYRQAPGKERELVAAISWRGGTTYYADSVKGRFTISRDNAKNTVYLKMNSLKPVDTAVYYCNADVWVYPYDYWGQGTQVTVSS”: the “polyreactivity (PSR sort gate)” value is on record as “low polyreactivity”.

Take “QVQLVESGGGLVQAGGSLRLSCAASGRIFGQYAMGWYRQAPGKERELVASIRSGGSTNYADSVKGRFTISRDNAKNTVYLQMNSLKPADSAVYYCNRRSGRTSRFHDYGYWGQGTQVTVSS”: the “polyreactivity (PSR sort gate)” value is reported as “high polyreactivity”.

Take “QVQLVESGGGLVQAGGSLRLSCAASGRIFGRDMGWYRQAPGKERELVATITWRGGSTYYADSVKGRFTISRDNAKNTVYLQMNSLKPEDTAVYYCTAALSHDYWHYRLGYWGQGTQVTVSS”: the “polyreactivity (PSR sort gate)” value was “low polyreactivity”.

Consider “QVQLVESGGGLVQAGGSLRLSCAASGRIFGRNAMGWYRPAPGKERELVADISYRGGRPYYADSVKGRFTISRDNAKNTVYLQMNSLKPEDTAVYYCNAGVYRSGGRKYDYWGQGTQVTVSS”, for which the “polyreactivity (PSR sort gate)” value is recorded as “high polyreactivity”.

For the sequence “QVQLVESGGGLVQAGGSLRLSCAASGRIFGRNAMGWYRQAPGKEREFVAGITTNGGRTYYADSVKGRFTISRDYAKNSVFLQMNSLIPEDTAVYYWAAVRYYFLKYYYWGQGTQVTVSS”, the “polyreactivity (PSR sort gate)” value is on record as “high polyreactivity”.

With “QVQLVESGGGLVQAGGSLRLSCAASGRIFGRNAMGWYRQAPGKEREFVARIRTSGGSTYYADSVKGRFTISRDNAKNTVYLQMISLTPEDTAVYYCAAAVYTSARGYDYWGQGTQVTVSS”, the “polyreactivity (PSR sort gate)” value is recorded as “high polyreactivity”.

As to “QVQLVESGGGLVQAGGSLRLSCAASGRIFGRNAMGWYRQAPGKERELVAGISSGGTTDYADSVKGRFTISRDNAKNTVYLQMNSLKPEDTAVYYCNDGYAYDDQTYYLGESDYWGQGTQVTVSS”, the “polyreactivity (PSR sort gate)” value was “low polyreactivity”.

Take “QVQLVESGGGLVQAGGSLRLSCAASGRIFGRNARGWYRQAPGKEREFVAAISGNGGSTYYADSVKGRFTISRDNAKNTVYLQMNSLKPEDTAVYYCATKYFSRMDYWGQGTQVTVSS”: the “polyreactivity (PSR sort gate)” value is reported as “high polyreactivity”.

With “QVQLVESGGGLVQAGGSLRLSCAASGRIFGRYAMGWSRQAPGKERELVAAIRWSVGSTYYADSVKGRFTISRDNAKNTVYLQMNSLKPEDTAVYYCAADIRQSIMDYWGQGTQVTVSS”, the “polyreactivity (PSR sort gate)” value is listed as “high polyreactivity”.

With “QVQLVESGGGLVQAGGSLRLSCAASGRIFGRYAMGWYRPAPGKERELVAAITYRTGRTYYADSVKGRFTISRDNAKNTVYLQMNSLKPEDTAVYYCDAESTSDPIDFEYWGQGTQVTVSS”, the “polyreactivity (PSR sort gate)” value is listed as “low polyreactivity”.

Turning to “QVQLVESGGGLVQAGGSLRLSCAASGRIFGRYAMGWYRQAPGKDRELVAAISSRGSRTYYADSVKGRFTISRDNAKNTVYLQMNSLKPEVTAVYYCAASWLSYPSDYDYWGQGTQVTVSS”, the “polyreactivity (PSR sort gate)” value was “high polyreactivity”.

As for “QVQLVESGGGLVQAGGSLRLSCAASGRIFGRYAMGWYRQAPGKEREFVAAISKRGGGTYYADSVKGRFTISRDNAKNTVYLQMNSLKPEDTAVYYCAVDNSPGFDDYDYWGQGTQVTVSS”, the “polyreactivity (PSR sort gate)” value is recorded as “high polyreactivity”.

Turning to “QVQLVESGGGLVQAGGSLRLSCAASGRIFGRYAMGWYRQAPGKERELVAVISSGGSTYYADSVKGRFTISRDNAKNTVYLQMNSLKPDDTAVYYCAAVIRGGYDYWGQGTQVTVSS”, the “polyreactivity (PSR sort gate)” value is recorded as “low polyreactivity”.

For “QVQLVESGGGLVQAGGSLRLSCAASGRIFGRYAMGWYRQAPGTERELVAAITSGGRTSYADSVKGRFTISRDNAKNTVDLQMNSLKPEDTAVYYCNVVSRNSIRFDYWGQGTQVTVSS”, the “polyreactivity (PSR sort gate)” value is listed as “high polyreactivity”.

Regarding “QVQLVESGGGLVQAGGSLRLSCAASGRIFGSYAMGWYRPAPGKERELVAGIRSVGSTNYADSVKGRFTISRDNAKNTVYLQMNSLKPEDTAVYYCAARLWHLSYAGQGGDYWGQGTQVTVSS”, the “polyreactivity (PSR sort gate)” value is given as “low polyreactivity”.

“QVQLVESGGGLVQAGGSLRLSCAASGRIFGSYAMGWYRQAPGKERELVAAISWNGGSRYYADSVKGRFTISRDNAKNTVYLQMNSLKPEDTAVYYCAVVYRAYRSTAYLYGYWGQGTQVTVSS”: the “polyreactivity (PSR sort gate)” value is listed as “high polyreactivity”.

With “QVQLVESGGGLVQAGGSLRLSCAASGRIFGSYAMGWYRQAPGKERELVAAITRGGSTNYADSVKGRFTISRDNAKNTVYFQMNSLKPEDTAVYYCARWVGLHYPYYYWGQGTQVTVSS”, the “polyreactivity (PSR sort gate)” value was “high polyreactivity”.

Turning to “QVQLVESGGGLVQAGGSLRLSCAASGRIFGSYAMGWYRQAPGKERELVAAITTVGITYYADSVKGRFTISRDNAKNTVYLQMNSLKPEDTADYYCAAEYFDYPYWYDYWGQGTQVTVSS”, the “polyreactivity (PSR sort gate)” value was “high polyreactivity”.

For the sequence “QVQLVESGGGLVQAGGSLRLSCAASGRIFGSYAMGWYRQAPGKERELVAGIRSVGSTNYADSVKGRFTISRDNAKNTVYFQINSLKPEDTAVYYCAARLWHLSYAGQGGDYWGHGTQVTVSS”, the “polyreactivity (PSR sort gate)” value is “low polyreactivity”.

As for “QVQLVESGGGLVQAGGSLRLSCAASGRIFGSYAMVWYRQVPGKERELVAASNWRGGSTFYADSVKGRFTISRDIAKNTVFLQMNSLKPDDNAVYYCSRRVYPQSCDNWGQGTQLTVSS”, the “polyreactivity (PSR sort gate)” value was “low polyreactivity”.

Turning to “QVQLVESGGGLVQAGGSLRLSCAASGRIFGTNDMGWYRQAPGKETELVAAIRATSGSTYYADSVKGRFTISRDNAKNTVYLQMNSLKPEDTAVYYCAAEIWRYNSYIKYWHRLDYWGQGTQVTVSS”, the “polyreactivity (PSR sort gate)” value was “high polyreactivity”.

In the case of “QVQLVESGGGLVQAGGSLRLSCAASGRIFGVNAMGWYRQAPGKERELVAAIFSGGSTYYADSVKGRFTISRDNAKNTVYLQMNSLKPEDTAGYYCAARFARYDWSMYYWGQGTQVTVSS”, the “polyreactivity (PSR sort gate)” value was “low polyreactivity”.

In the case of “QVQLVESGGGLVQAGGSLRLSCAASGRIFGVNAMGWYRQAPGKERELVAAIFSGGSTYYADSVKGRFTISRDTAKNTVYLQMNSLKPEDTAVYYCAARFARYDWSMYYWGQGTQVTVSS”, the “polyreactivity (PSR sort gate)” value is listed as “low polyreactivity”.

For the sequence “QVQLVESGGGLVQAGGSLRLSCAASGRIFGVNAMGWYRQAPGKERELVAAINYSGGRTSYADSVKGRFTISRDHAKNTVYLQMNSLKPEDTAVYYCAKYGLRGGYLYYYWGQGTQVTVSS”, the “polyreactivity (PSR sort gate)” value is reported as “high polyreactivity”.

“QVQLVESGGGLVQAGGSLRLSCAASGRIFGVNAMGWYRQAPGKERELVAAITSSGGSTYYADSVKGRFTISRDHAKNTVYLQMNSLKPEDTAVYYCAAKYWYGKPYGSYGYWGQGTQVTVSS”: the “polyreactivity (PSR sort gate)” value is “high polyreactivity”.

“QVQLVESGGGLVQAGGSLRLSCAASGRIFGVNAMGWYRQAPGKERELVAAITWSGGRTYYADSVKGRFTISRDNAKNTVFLLMNSMKQEDTAVYYCNTGLSGRRYGFGLSFCMDYWGQGTQVTVSS”: the “polyreactivity (PSR sort gate)” value is “low polyreactivity”.

In the case of “QVQLVESGGGLVQAGGSLRLSCAASGRIFGVNVMGWYRQAPGKERELVAGINSSGGSTYYADSVKGRFTISRDNAKNTVYLQMNSLKPEDTAVYYCDVRSIWRYGYWGQGTQVTVSS”, the “polyreactivity (PSR sort gate)” value is listed as “high polyreactivity”.

As for “QVQLVESGGGLVQAGGSLRLSCAASGRIFGVYAMGWYRQAPGKERELVAAITRRGGTTYYADSVKGRFTISRDNAKNTVYLQMNSLKPEDTAVYYCAAVFVTQSFIYDYYYWGQGTQVTVSS”, the “polyreactivity (PSR sort gate)” value is on record as “high polyreactivity”.

On to “QVQLVESGGGLVQAGGSLRLSCAASGRIFGVYAMGWYRQAPGKERELVAAITSSGGRTYYADSVKGRFTISRDNAKNTVYLQMNSLKPEDTAVYYCAALGLSRRGKFNYWGQGTQVTVSS”, for which the “polyreactivity (PSR sort gate)” value was “high polyreactivity”.

On to “QVQLVESGGGLVQAGGSLRLSCAASGRIFGVYAMGWYRQAPGKERELVAAIYSGSSTYYADSVKGRFTISRDNAKNTVYLQMNSLKPEDTAVYYCAAVSRDDNYHDYYYWGQGTQVTVSS”, for which the “polyreactivity (PSR sort gate)” value is “low polyreactivity”.

As to “QVQLVESGGGLVQAGGSLRLSCAASGRIFGVYAMGWYRQAPGKERELVASISDGTITNYADSVKGRFTISRDNAKNTVYLQMNSLKPEDTAVYYCAATWSFVYGDYFEYDYWGQGTQVTVSS”, the “polyreactivity (PSR sort gate)” value is on record as “low polyreactivity”.

Consider “QVQLVESGGGLVQAGGSLRLSCAASGRIFGVYAMGWYRQAPGKERELVASITWRGGSTYYADSVKGRFTISRDNAKNTVYLQMNSLKPEDTAVYYCAAAYWYAYEYWGQGTQVTVSS”, for which the “polyreactivity (PSR sort gate)” value is “high polyreactivity”.

As for “QVQLVESGGGLVQAGGSLRLSCAASGRIFGVYAMGWYRQAPGKERELVAVINGRGSRTYYADSVKGRFTISRDNAKNTVYLQMNSLKPEDTAVYYCAAGYPDSEYDYWGQGTQVTVSS”, the “polyreactivity (PSR sort gate)” value was “high polyreactivity”.

For the sequence “QVQLVESGGGLVQAGGSLRLSCAASGRIFGWNAMGWYRQPPGKERELVAAISADGNTYYADSVKGRFTISRDNAKNTVYLQMNSLKPEDTAVYYCNAYVYSGYSIRDYWGQGTQVTVSS”, the “polyreactivity (PSR sort gate)” value is listed as “high polyreactivity”.

Turning to “QVQLVESGGGLVQAGGSLRLSCAASGRIFGWYAMGWYRQAPGKERELVAAISSADSTNYADSVKGRFTIARDNAKNTVYLQMNSLKPEDTAVYYCNAEGLPGNVVYGYYYWGQGTQLTVSS”, the “polyreactivity (PSR sort gate)” value is “low polyreactivity”.

With “QVQLVESGGGLVQAGGSLRLSCAASGRIFGWYAMGWYRQAPGKERELVATIRKSGGRTYYADSVKGRFTLSRDNAKNTVYFQMNSLKQEDTAVYYCAAENTAAGQGLWGEDYWGQGTQVTVSS”, the “polyreactivity (PSR sort gate)” value is given as “high polyreactivity”.

Turning to “QVQLVESGGGLVQAGGSLRLSCAASGRIFGWYSMGWYRQAPGKERELVAAISSNGGSTYYADSVKGRFTISRDNAKNTVYLQMNSLKPEDTAVYFCAAVRVFQYKYDRFNYWGQGTQVTVSS”, the “polyreactivity (PSR sort gate)” value is “high polyreactivity”.
